Target: PAC1 receptor (human) (UniProt P41586)
Assay: cell-based or functional assay

PAC1 receptor (human), sequence (P41586 21-468): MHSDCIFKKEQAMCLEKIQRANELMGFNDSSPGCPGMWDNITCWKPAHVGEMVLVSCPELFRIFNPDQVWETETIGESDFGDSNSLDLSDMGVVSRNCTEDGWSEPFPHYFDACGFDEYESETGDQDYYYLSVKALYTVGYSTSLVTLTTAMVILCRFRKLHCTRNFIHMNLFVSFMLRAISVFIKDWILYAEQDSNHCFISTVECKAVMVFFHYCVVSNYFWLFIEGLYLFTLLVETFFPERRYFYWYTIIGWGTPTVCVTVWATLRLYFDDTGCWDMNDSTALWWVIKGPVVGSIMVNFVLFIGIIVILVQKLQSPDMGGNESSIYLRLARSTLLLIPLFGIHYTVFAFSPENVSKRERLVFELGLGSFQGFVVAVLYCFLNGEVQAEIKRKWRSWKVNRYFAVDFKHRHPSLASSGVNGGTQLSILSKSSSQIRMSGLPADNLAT

- fold lower potency as inhibitor of multiple myeloma cell proliferation, against the corresponding analog with pipecolic acid in position 3: 10000 fold
Substance: PACAP38 analog with nipecotic acid in position 3 (peptide)

Reference: US20150104388A1
